According to the RNAGym collection of RNA variant scans (doi:10.7554/elife.80360):

B1: Hammerhead Ribozyme (parent)
chain: ACCGGAUGUGCUUUCCGGUCUGAUGAGUCCGUGAGGACGAAACAG

Variants of: B1
Test: self-cleavage, relative activity (ratio to wild type); higher = more cleavage; co-transcriptional

| Variant | self-cleavage |
| --- | --- |
| C15A G17A | 0.351 |
| G4A C15G | 0.419 |
| C3A U9C | 0.756 |
| G8U A42C | 0.422 |
| A6G G39A | 0.31 |
| U9C U24A | 1.29 |
| U24A C30U | 0.785 |
| C38G A40U | 0.301 |
| C15G G35U | 0.455 |
| C15A U19A | 0.365 |
| U13G A23C | 0.356 |
| C2U A26G | 0.34 |
| A6U G17C | 0.354 |
| C11G U14G | 0.74 |
| U32A A34G | 0.818 |
| G25U A41G | 0.35 |
| U12A G39A | 0.257 |
| C15G C30G | 0.618 |
| A37C A41C | 0.285 |
| U19A G45A | 0.354 |
| G17C G25U | 0.296 |
| C30A A44U | 0.441 |
| G4A A23G | 0.272 |
| G8U U14G | 0.94 |

| Variant | self-cleavage |
| --- | --- |
| U9G G31C | 0.754 |
| G4U A6U | 0.387 |
| G4U A6G | 0.327 |
| G10A U13C | 1.39 |
| U21C U24C | 0.909 |
| C30G U32G | 0.651 |
| C29G A42U | 0.394 |
| C3A G39C | 0.282 |
| C29A G33A | 0.816 |
| C2A G25U | 0.323 |
| U19C A40G | 0.332 |
| A6U G18C | 0.395 |
| U19G G31C | 0.431 |
| U13C A34C | 1.02 |
| A6U G35A | 0.505 |
| C2G A44U | 0.323 |
| C20G U32A | 0.305 |
| C2U A44U | 0.646 |
| U7A U21A | 0.359 |
| A1U A42U | 0.279 |
| C3U U7A | 1.26 |
| A37C G45C | 0.337 |
| U32C A40C | 0.626 |
| G8C A41U | 0.388 |

| Variant | self-cleavage |
| --- | --- |
| C3G U12G | 0.356 |
| G18U A42G | 0.37 |
| A26C G35A | 0.431 |
| A6G G31C | 0.979 |
| A23U U28G | 0.36 |
| U9A C20U | 0.557 |
| G5C G18U | 0.307 |
| G17A A23C | 0.325 |
| A34G G35A | 0.675 |
| C30A A40U | 0.347 |
| C2U G27A | 1.06 |
| A6C U24C | 0.387 |
| A1G | 1.79 |
| U28G G36U | 0.35 |
| G17U G39U | 0.357 |
| G35C A40G | 0.28 |
| U14G G33U | 0.678 |
| G10A | 1.09 |
| C16A U32G | 0.899 |
| U24G A26C | 0.373 |
| C11U A23C | 0.277 |
| C11A G33U | 1.21 |
| A6G A26U | 0.71 |
| U9G C38G | 0.486 |

| Variant | self-cleavage |
| --- | --- |
| U21C G36U | 0.665 |
| U21C G36C | 0.366 |
| C3U C29U | 0.926 |
| U14A C43U | 0.41 |
| G35A A41C | 0.32 |
| G8U U28A | 0.966 |
| U7G U13G | 1.67 |
| U13C U19A | 0.351 |
| A6C G33A | 0.689 |
| A1G C3A | 0.699 |
| C16U G22U | 0.327 |
| A6U A41U | 0.282 |
| C15A G39C | 0.366 |
| G31U C38G | 0.59 |
| G10A U32A | 1.14 |
| G10U G27U | 0.507 |
| U24C C43A | 0.271 |
| U7A G10U | 1.44 |
| U7A U9C | 1.04 |
| G17A A41C | 0.259 |
| C15G G18C | 0.353 |
| G8U C20G | 0.392 |
| C2U C29A | 0.701 |
| C11A C16A | 1.41 |

| Variant | self-cleavage |
| --- | --- |
| U32A G35A | 0.75 |
| C16A G27U | 0.534 |
| G4C G18U | 0.284 |
| A6C C16A | 0.643 |
| U14C G33A | 0.754 |
| G5U U28C | 0.458 |
| G5U U28G | 0.376 |
| G10C C30G | 0.675 |
| U12A U21C | 0.517 |
| G4C C29G | 0.347 |
| G33U A42U | 0.371 |
| C3U U32C | 0.962 |
| G39C A41C | 0.351 |
| G8A U24C | 0.979 |
| A6U U32A | 0.605 |
| C2A G4U | 1.77 |
| U32A G39A | 0.367 |
| C20A U32G | 0.255 |
| G22C A26C | 0.3 |
| G36A C43U | 0.378 |
| G4C U12C | 0.513 |
| A1U G17C | 0.393 |
| A1G C29U | 1.52 |
| C20A A37C | 0.417 |

| Variant | self-cleavage |
| --- | --- |
| G35C G45C | 0.395 |
| U21G | 0.706 |
| G31A G45A | 0.934 |
| A1U G31A | 1.03 |
| G17C C38G | 0.452 |
| C20U G25U | 0.328 |
| A23C A40C | 0.31 |
| C20U G45C | 0.471 |
| C16U G17A | 0.556 |
| U24G U28G | 0.885 |
| U24G U28C | 0.971 |
| U13A G45C | 0.808 |
| U13G A26C | 0.383 |
| G27C U32G | 0.705 |
| A23G G33C | 0.376 |
| G4U G25A | 0.25 |
| G27C G35C | 0.394 |
| U7G U19A | 0.398 |
| G4A G8U | 0.696 |
| G25U A44G | 0.669 |
| G18C C20U | 0.339 |
| C11A G22U | 0.246 |
| U7G C11G | 1.52 |
| C20U U24A | 0.799 |

| Variant | self-cleavage |
| --- | --- |
| C30U A41C | 0.374 |
| G5C A37G | 0.44 |
| G4C U14A | 0.512 |
| C16G | 1.02 |
| U24C G39C | 0.352 |
| U12C G35C | 0.617 |
| U32G A40G | 0.342 |
| G10C C29G | 0.638 |
| A1G G33U | 1.7 |
| A1G G33C | 1.67 |
| U28C G39C | 0.371 |
| G22C C43G | 0.24 |
| U7A G36C | 0.394 |
| C2U A41U | 0.365 |
| C3A A34C | 0.359 |
| U9G C30A | 0.677 |
| G35A G39U | 0.328 |
| U9G A40C | 0.423 |
| A6U C30A | 0.649 |
| U21A A34G | 0.387 |
| U9G C16A | 0.835 |
| A6G C43A | 0.217 |
| A6G C43G | 0.284 |
